The results in this text go back to patent publication US6825325 (FRAUNHOFER GESELLSCHAFT ZUR FORDERUNG DER ANGEWANDTEN …, dated 2004).

Assay [1] addresses T1, GST-30K fusion protein (bacterially expressed 30K TMV movement protein fused to GST) (Schistosoma japonicum; Tobacco mosaic …, UniProt P03583 1-268).
T1 construct: not shown: glutathione S-transferase, Schistosoma japonicum (Pharmacia GST-System)
T1 sequence (looked up): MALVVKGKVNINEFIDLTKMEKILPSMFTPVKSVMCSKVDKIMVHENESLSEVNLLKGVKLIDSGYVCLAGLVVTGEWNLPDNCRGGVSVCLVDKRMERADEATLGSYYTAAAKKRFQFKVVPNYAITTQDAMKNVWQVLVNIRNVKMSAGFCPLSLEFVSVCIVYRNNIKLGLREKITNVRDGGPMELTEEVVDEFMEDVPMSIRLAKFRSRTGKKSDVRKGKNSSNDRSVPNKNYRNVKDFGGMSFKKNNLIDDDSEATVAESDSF
The experiment in a line: ELISA of scFvs (member of the panel of 10). (In an ELISA, binding on a coated surface is turned into a signal by an enzyme label.)

In assay [2] the target is bacterially expressed GST-protein alone (Schistosoma japonicum, UniProt P08515 1-218 = GST). The experiment in a line: ELISA of scFvs (member of the panel of 10).
Chain of bacterially expressed GST-protein alone (P08515 whole entry): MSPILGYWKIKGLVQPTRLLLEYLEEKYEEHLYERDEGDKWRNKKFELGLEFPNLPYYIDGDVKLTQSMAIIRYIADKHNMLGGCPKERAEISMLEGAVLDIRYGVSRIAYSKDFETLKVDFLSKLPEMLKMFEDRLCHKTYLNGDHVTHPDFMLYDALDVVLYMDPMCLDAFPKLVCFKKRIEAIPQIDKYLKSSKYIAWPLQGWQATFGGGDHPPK

B1: scFv 30-2 (scFv)
scFv: EVKLQQSGAELVKPGASVKISCKASDYSFTGYNMNWVKQSHGKSLEWIGNINPYYGSTSYNQKFKGKATLTVDKSSSTAYMQLNSLTSEDSAVYYCAVGGNYVDWFAYWGQGTLVTVSSGGGGSGGGGSGGGGSDILLTQSPLSLPVSLGDHASISCRSSQSLVHSNGNTYLHWYLQNPGQSPKLLIYKVSNRFSGIPDRFSGSGSGTDFTLKISRVEAEDLGVYFCSQSTHVPYTFGGGTKLELKRAVDAAAEQKLISEEDLNGAA
notes: also called 30K specific scFv No. 2; scFv 30K-2
On to B1, for which the binding result in assay [1] is on record as “binds”; in assay [2] it was “no binding”.
